Source: paper PMC12816604, “Structural basis of double-stranded RNA recognition by the J2 monoclonal antibody”

Assays:
Assay in all cases: BLI; 100 mM KCl; BLI: 25 mM Tris-HCl pH 7.5, 2 mM MgCl2, KCl 100 mM (6-20 bp and mutants), 200 mM (30 bp) or 400 mM (40, 50 bp), 25 C; IgG immobilised on Protein A probes
Settings in all cases: protein: recombinant;recombinant; tags: His8 (C-term);; chain copies: 2;2; blunt
[1] = target: J2 IgG light chain Y38F;J2 IgG heavy chain (HC-TEV-His8) (Mus musculus;Mus musculus, UniProt ; ;, Y38F|)
Chain of J2 IgG light chain Y38F;J2 IgG heavy chain (HC-TEV-His8) (chain, as listed by the source Y38F| | Y38F Y38F, chain 1 of 2): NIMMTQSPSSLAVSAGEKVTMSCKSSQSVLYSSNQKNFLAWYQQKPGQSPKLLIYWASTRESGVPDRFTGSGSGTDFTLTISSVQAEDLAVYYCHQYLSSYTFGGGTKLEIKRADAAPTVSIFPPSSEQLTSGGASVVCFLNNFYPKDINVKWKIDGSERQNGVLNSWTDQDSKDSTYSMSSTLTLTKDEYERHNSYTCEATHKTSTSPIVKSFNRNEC
Chain of J2 IgG light chain Y38F;J2 IgG heavy chain (HC-TEV-His8) (chain, as listed by the source Y38F| | Y38F Y38F, chain 2 of 2): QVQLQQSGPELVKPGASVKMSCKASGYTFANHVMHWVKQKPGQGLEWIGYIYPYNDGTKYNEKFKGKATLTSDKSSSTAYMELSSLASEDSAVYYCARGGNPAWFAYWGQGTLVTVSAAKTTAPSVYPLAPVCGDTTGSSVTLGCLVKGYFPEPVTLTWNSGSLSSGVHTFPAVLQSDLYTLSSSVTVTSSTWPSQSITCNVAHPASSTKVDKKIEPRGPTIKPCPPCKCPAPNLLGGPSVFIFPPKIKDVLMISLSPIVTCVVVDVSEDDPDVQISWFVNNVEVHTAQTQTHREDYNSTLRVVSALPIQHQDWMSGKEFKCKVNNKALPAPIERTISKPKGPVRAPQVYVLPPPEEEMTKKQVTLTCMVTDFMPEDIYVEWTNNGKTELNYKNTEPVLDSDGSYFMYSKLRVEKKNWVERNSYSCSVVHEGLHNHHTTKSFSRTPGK

[2] = target: J2 IgG heavy chain (HC-TEV-His8) Y52F;J2 IgG light chain (Mus musculus;Mus musculus, UniProt ; ;, Y52F|)
Chain of J2 IgG heavy chain (HC-TEV-His8) Y52F;J2 IgG light chain (chain, as listed by the source Y52F| | Y52F Y52F, chain 1 of 2): as the sequence (chain, as listed by the source Y38F| | Y38F Y38F, chain 2 of 2) above, with Y52F counted along it
Chain of J2 IgG heavy chain (HC-TEV-His8) Y52F;J2 IgG light chain (chain, as listed by the source Y52F| | Y52F Y52F, chain 2 of 2): as the sequence (chain, as listed by the source Y38F| | Y38F Y38F, chain 1 of 2) above, with F38Y counted along it

[3] = target: J2 IgG light chain Y31F;J2 IgG heavy chain (HC-TEV-His8) (Mus musculus;Mus musculus, UniProt ; ;, Y31F|)
Chain of J2 IgG light chain Y31F;J2 IgG heavy chain (HC-TEV-His8) (chain, as listed by the source Y31F| | Y31F Y31F, chain 1 of 2): as the sequence (chain, as listed by the source Y38F| | Y38F Y38F, chain 1 of 2) above, with Y31F, F38Y counted along it
Chain of J2 IgG light chain Y31F;J2 IgG heavy chain (HC-TEV-His8) (chain, as listed by the source Y31F| | Y31F Y31F, chain 2 of 2): as the sequence (chain, as listed by the source Y38F| | Y38F Y38F, chain 2 of 2) above

[4] = target: J2 IgG heavy chain (HC-TEV-His8) Y54A;J2 IgG light chain (Mus musculus;Mus musculus, UniProt ; ;, Y54A|)
Chain of J2 IgG heavy chain (HC-TEV-His8) Y54A;J2 IgG light chain (chain, as listed by the source Y54A| | Y54A Y54A, chain 1 of 2): as the sequence (chain, as listed by the source Y38F| | Y38F Y38F, chain 2 of 2) above, with Y54A counted along it
Chain of J2 IgG heavy chain (HC-TEV-His8) Y54A;J2 IgG light chain (chain, as listed by the source Y54A| | Y54A Y54A, chain 2 of 2): as the sequence (chain, as listed by the source Y38F| | Y38F Y38F, chain 1 of 2) above, with F38Y counted along it

[5] = target: J2 IgG light chain Y31A;J2 IgG heavy chain (HC-TEV-His8) (Mus musculus;Mus musculus, UniProt ; ;, Y31A|)
Chain of J2 IgG light chain Y31A;J2 IgG heavy chain (HC-TEV-His8) (chain, as listed by the source Y31A| | Y31A Y31A, chain 1 of 2): as the sequence (chain, as listed by the source Y38F| | Y38F Y38F, chain 1 of 2) above, with Y31A, F38Y counted along it
Chain of J2 IgG light chain Y31A;J2 IgG heavy chain (HC-TEV-His8) (chain, as listed by the source Y31A| | Y31A Y31A, chain 2 of 2): as the sequence (chain, as listed by the source Y38F| | Y38F Y38F, chain 2 of 2) above

[6] = target: J2 IgG heavy chain (HC-TEV-His8) A30P;J2 IgG light chain (Mus musculus;Mus musculus, UniProt ; ;, A30P|)
Chain of J2 IgG heavy chain (HC-TEV-His8) A30P;J2 IgG light chain (chain, as listed by the source A30P| | A30P A30P, chain 1 of 2): as the sequence (chain, as listed by the source Y38F| | Y38F Y38F, chain 2 of 2) above, with A30P counted along it
Chain of J2 IgG heavy chain (HC-TEV-His8) A30P;J2 IgG light chain (chain, as listed by the source A30P| | A30P A30P, chain 2 of 2): as the sequence (chain, as listed by the source Y38F| | Y38F Y38F, chain 1 of 2) above, with F38Y counted along it

[7] = target: J2 IgG heavy chain (HC-TEV-His8) Y54F;J2 IgG light chain (Mus musculus;Mus musculus, UniProt ; ;, Y54F|)
Chain of J2 IgG heavy chain (HC-TEV-His8) Y54F;J2 IgG light chain (chain, as listed by the source Y54F| | Y54F Y54F, chain 1 of 2): as the sequence (chain, as listed by the source Y38F| | Y38F Y38F, chain 2 of 2) above, with Y54F counted along it
Chain of J2 IgG heavy chain (HC-TEV-His8) Y54F;J2 IgG light chain (chain, as listed by the source Y54F| | Y54F Y54F, chain 2 of 2): as the sequence (chain, as listed by the source Y38F| | Y38F Y38F, chain 1 of 2) above, with F38Y counted along it

[8] = target: J2 IgG heavy chain (HC-TEV-His8);J2 IgG light chain (Mus musculus;Mus musculus, UniProt ; ;, |)
Chain of J2 IgG heavy chain (HC-TEV-His8);J2 IgG light chain (chain, as listed by the source |, chain 1 of 2): as the sequence (chain, as listed by the source Y38F| | Y38F Y38F, chain 2 of 2) above
Chain of J2 IgG heavy chain (HC-TEV-His8);J2 IgG light chain (chain, as listed by the source |, chain 2 of 2): as the sequence (chain, as listed by the source Y38F| | Y38F Y38F, chain 1 of 2) above, with F38Y counted along it

[9] = target: J2 IgG heavy chain (HC-TEV-His8) Y50F;J2 IgG light chain (Mus musculus;Mus musculus, UniProt ; ;, Y50F|)
Chain of J2 IgG heavy chain (HC-TEV-His8) Y50F;J2 IgG light chain (chain, as listed by the source Y50F| | Y50F Y50F, chain 1 of 2): as the sequence (chain, as listed by the source Y38F| | Y38F Y38F, chain 2 of 2) above, with Y50F counted along it
Chain of J2 IgG heavy chain (HC-TEV-His8) Y50F;J2 IgG light chain (chain, as listed by the source Y50F| | Y50F Y50F, chain 2 of 2): as the sequence (chain, as listed by the source Y38F| | Y38F Y38F, chain 1 of 2) above, with F38Y counted along it

B1: 20-bp dsRNA (dsRNA)
RNA 1: GUUGUAAAGAAGGUCAAUAU
RNA 2: AUAUUGACCUUCUUUACAAC
Kd [1]: 150 ± 20 nM | Kd [2]: 220 nM | Kd [3]: 360 ± 60 nM | Kd [4]: 300 ± 30 nM | Kd [5]: 940 ± 560 nM | Kd [6]: 120 ± 20 nM | Kd [7]: 710 ± 170 nM | Kd [8]: 120 ± 10 nM | Kd [9]: 430 ± 40 nM
